Three molecules from patent publication US20190330280, “TRANSCRIPTIONAL REGULATORY FUSION POLYPEPTIDE” (Astellas Pharma Inc., published 2019) can be followed below.

What all share (assay): cell_activity; human T cells, 3.0 nM protein added to medium, 24 h, 37 C
Holding throughout (conditions): tags: N-terminal GST, NTP cell-penetrating peptide, p300 core fusion

One data set deals with T1, NTP-TALE-TERT-1-p300CD (artificial, UniProt P14727 SEQ:29-906).
T1 chain: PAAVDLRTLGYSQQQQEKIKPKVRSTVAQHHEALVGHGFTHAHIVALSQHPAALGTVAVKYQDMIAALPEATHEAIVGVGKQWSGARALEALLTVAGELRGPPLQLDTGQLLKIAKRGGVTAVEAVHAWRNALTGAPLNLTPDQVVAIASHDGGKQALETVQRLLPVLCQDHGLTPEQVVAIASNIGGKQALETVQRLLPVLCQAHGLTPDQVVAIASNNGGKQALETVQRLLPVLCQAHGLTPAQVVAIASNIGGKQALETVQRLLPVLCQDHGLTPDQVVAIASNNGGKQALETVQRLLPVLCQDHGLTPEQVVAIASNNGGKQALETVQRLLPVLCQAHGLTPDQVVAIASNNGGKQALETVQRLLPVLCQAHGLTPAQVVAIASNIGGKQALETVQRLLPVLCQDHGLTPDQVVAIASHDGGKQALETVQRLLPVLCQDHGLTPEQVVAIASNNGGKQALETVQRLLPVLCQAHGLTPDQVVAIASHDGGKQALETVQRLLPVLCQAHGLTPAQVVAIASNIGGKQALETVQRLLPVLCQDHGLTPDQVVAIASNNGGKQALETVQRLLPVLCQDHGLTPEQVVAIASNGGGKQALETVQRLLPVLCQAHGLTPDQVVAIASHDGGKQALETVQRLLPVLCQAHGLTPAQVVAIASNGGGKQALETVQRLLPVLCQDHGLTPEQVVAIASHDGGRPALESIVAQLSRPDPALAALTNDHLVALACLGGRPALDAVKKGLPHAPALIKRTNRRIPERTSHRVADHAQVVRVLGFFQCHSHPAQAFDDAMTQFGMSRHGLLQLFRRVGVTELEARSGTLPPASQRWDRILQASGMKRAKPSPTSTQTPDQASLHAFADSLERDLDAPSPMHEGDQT
The method, then:
(§1) Each NTP-TALE-Activator (NTP-TALE-TERT-1-p300CD, NTP-TALE-TERT-2-p300CD and NTP-TALE-TERT-3-p300CD) targeting human TERT, prepared in Example 1 was dialyzed at 4° C. for 3 hours against OPTI-MEM medium (Thermo Fisher Scientific Inc.) in a microdialysis column (Tomy Seiko Co., Ltd.). The concentrations after purification were 40 nM NTP-TALE-TERT-1-p300CD, 55 nM NTP-TALE-TERT-2-p300CD, and 55 nM NTP-TALE-TERT-3-p300CD. Human T cells (obtained by separation from peripheral mononuclear cells in blood collected from a healthy person) were suspended in 100 μL of KBM550 (Kohjin Bio Co., Ltd.) and seeded in a 96-well plate at 0.5×10⁴ cells/well.
(§2) The obtained human T cells were cultured for 12 hours. Then, each NTP-TALE-Activator dialyzed as mentioned above was added at 3.0 nM (final concentration) to each well (as a result of conducting studies beforehand with a plurality of concentrations, the concentration at which each NTP-TALE-Activator was most responsive was 3.0 nM). Wells to which NTP-TALE-Activator was not added were prepared as a control. The plate was left standing for 24 hours in an incubator at 37° C. and a CO₂ concentration of 5%.

In a further data set the target is T2, NTP-TALE-TERT-3-p300CD (artificial, UniProt P14727 SEQ:29-906).
T2 chain: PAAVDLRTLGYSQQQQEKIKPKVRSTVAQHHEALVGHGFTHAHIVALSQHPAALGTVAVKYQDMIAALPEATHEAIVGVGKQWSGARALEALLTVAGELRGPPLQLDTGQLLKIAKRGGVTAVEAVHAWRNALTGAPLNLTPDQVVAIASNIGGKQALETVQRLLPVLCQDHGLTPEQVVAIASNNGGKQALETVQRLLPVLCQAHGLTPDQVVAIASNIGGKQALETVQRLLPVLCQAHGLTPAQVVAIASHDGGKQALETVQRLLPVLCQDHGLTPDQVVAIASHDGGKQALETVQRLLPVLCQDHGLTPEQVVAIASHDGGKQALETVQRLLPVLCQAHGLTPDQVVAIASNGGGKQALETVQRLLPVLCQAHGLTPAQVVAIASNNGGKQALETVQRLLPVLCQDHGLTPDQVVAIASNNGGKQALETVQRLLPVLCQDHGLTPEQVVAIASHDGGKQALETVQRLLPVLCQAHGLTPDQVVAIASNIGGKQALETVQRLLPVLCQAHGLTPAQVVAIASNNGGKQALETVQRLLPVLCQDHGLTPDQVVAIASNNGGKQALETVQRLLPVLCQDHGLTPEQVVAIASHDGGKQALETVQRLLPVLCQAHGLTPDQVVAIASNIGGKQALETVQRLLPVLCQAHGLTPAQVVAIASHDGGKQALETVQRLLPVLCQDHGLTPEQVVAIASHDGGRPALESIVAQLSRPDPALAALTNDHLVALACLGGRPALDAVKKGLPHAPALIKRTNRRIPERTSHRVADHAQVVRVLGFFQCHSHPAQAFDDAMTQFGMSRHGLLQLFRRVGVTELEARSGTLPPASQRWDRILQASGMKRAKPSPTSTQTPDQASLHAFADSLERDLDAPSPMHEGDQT
The procedure: as §1, §2

The target of a further data set is T3, NTP-TALE-TERT-2-p300CD (artificial, UniProt P14727 SEQ:29-906).
T3 chain: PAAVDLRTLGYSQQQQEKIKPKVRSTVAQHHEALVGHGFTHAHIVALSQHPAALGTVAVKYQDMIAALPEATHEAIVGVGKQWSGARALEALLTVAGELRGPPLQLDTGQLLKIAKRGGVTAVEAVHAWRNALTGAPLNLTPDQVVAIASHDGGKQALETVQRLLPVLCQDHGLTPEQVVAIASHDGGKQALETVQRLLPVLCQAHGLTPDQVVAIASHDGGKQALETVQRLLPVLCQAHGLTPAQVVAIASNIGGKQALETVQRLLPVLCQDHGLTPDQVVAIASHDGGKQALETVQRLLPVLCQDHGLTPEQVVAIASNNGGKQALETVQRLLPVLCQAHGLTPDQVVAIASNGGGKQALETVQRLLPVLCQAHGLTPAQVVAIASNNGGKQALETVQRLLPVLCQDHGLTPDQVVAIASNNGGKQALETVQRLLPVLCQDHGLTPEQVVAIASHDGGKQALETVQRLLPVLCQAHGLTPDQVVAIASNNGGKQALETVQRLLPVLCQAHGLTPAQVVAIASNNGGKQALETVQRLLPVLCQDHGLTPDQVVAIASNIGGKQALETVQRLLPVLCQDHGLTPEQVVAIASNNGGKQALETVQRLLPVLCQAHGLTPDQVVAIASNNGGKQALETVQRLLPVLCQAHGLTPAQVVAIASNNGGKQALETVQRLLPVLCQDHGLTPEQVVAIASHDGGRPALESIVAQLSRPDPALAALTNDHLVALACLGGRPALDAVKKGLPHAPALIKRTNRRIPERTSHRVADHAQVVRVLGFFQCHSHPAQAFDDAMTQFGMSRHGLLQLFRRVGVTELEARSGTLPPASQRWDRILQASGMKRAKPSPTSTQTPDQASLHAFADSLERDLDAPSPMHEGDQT
The procedure: as §1, §2

B1: human TERT enhancer target (AH007699.2 nt 49444-49461) (dsDNA)
DNA 1: TCAGAGGGACGCAGTCTT
DNA 2: AAGACTGCGTCCCTCTGA
In the data set with NTP-TALE-TERT-1-p300CD, B1 had an activity of around 17 fold TERT mRNA.

B2: human TERT enhancer target (AH007699.2 nt 6501-6518) (dsDNA)
DNA 1: TAGACCCTGGCAGGCACT
DNA 2: AGTGCCTGCCAGGGTCTA
In the data set with NTP-TALE-TERT-3-p300CD, B2 showed an activity of around 2 fold TERT mRNA.

B3: human TERT promoter target (AH007699.2 nt 11029-11046) (dsDNA)
DNA 1: CCCCACGTGGCGGAGGGA
DNA 2: TCCCTCCGCCACGTGGGG
As to B3, the activity with NTP-TALE-TERT-2-p300CD is around 3.5 fold TERT mRNA.
